Target: bacteriophage P2 of Lactococcus lactis
Experiment: cell-based or functional assay

B1: VHH#1 (VHH)
VHH: QVQLQESGGGLVQAGGSLRLSCTASRRTGSNWCMGWFRQLAGKEPELVVALNFDYDMTYYADSVKGRFTVSRDSGKNTVYLQMNSLKPEDTAIYYCAARSGGFSSNRELYDGWGQGTQVTVSS
neutralisation in microtiter acidification assay (lowest effective concentration): 47 ng/mL
reduction in the phage titre (plaque titration on L. lactis LM0230): > 99%

Reference: US20030165511A1
